The supplement of paper PMC11865577

Assays:
Assay in all cases: pull-down binding Z-score (relative to library population); higher = stronger binding
[1] = system: G-clamp-N3 (biotin conjugate); details: RNA library: Library-1 (pre-miRNA loops + repeats)
Summary of the method: (§1)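 The RNA library, end-labelled with Cy5 or Cy3, was heat-folded in phosphate/NaCl/KCl buffer, and 1 μg was incubated at 25 °C for 60 min with streptavidin beads carrying 100 pmol of biotin-conjugated small molecule. Hot SDS released the bound RNA, which was then hybridised to a DNA barcode microarray for 20 h at 55.5 °C. For scoring binding, signal from beads alone was subtracted, replicate barcoded probes were averaged after discarding the highest and lowest, and each value was turned into a Z-score from the library mean and standard deviation.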

[2] = system: TO-3-N3 (biotin conjugate); details: RNA library: Library-2
Summary of the method: as §1

[3] = system: TO-3-N3-2 (biotin conjugate); details: RNA library: Library-2
Summary of the method: as §1

TO-N3 (biotin conjugate) = details: RNA library: Library-2
Summary of the method: as §1

[4] = system: TO-N3-2 (biotin conjugate); details: RNA library: Library-2
Summary of the method: as §1

Sequence	pull-down binding Z-score [1]	pull-down binding Z-score [2]	pull-down binding Z-score [3]	pull-down binding Z-score (TO-N3 (biotin conjugate))	pull-down binding Z-score [4]
UUAACCUAAAAUGAGAAGGCUAA [hsa-mir-633]	-1.29	-0.0885	-0.223	-0.212	-0.637
UUUUGCAUUUAAAGUAAUGGCCAAA [hsa-mir-548ay]	2.31	-0.735	-0.285	-0.77	-0.173
UGUAAGUUUGCGAUGAGACACUACA [hsa-mir-144]	-0.844	0.0531	0.297	0.405	0.341
GUGGGUCAAGUUUAGAGAUGCACCAAC [hsa-mir-490]	0.572	1.32	0.519	1.43	1.5
CCGGGCGCUGCUCUGACCCCUCGU [hsa-mir-187]	0.00395	0.166	0.116	0.875	1.39
UCUUCUUUUGGAAGGAAGA [hsa-mir-3122]	0.729	-0.175	-0.532	-0.591	-1.53
CUCUGAUGUAAUUAGGU [hsa-mir-563]	-1.2	-0.504	-0.321	-0.642	-0.397
GGCAUCCCCAUUGCU [hsa-mir-4304]	-0.987	0.527	-0.113	0.343	0.191
GCUUCUCUUUCUCACCAGCAGC [hsa-mir-4467]	-1.87	-0.543	0.152	-0.461	-0.0165
UGGCUUGCACCGUGACUCCCUCUCACCAAGCAAGUGUC [hsa-mir-4440]	-0.837	-0.387	0.0231	0.0846	0.607
GAGCUCAGGAGCUC [hsa-mir-8052]	0.271	-0.634	-0.529	-0.9	-0.448
GUGGAACUGACCUGCCCCCUUUCUC [hsa-mir-6817]	-1.77	0.152	0.124	0.517	0.882
UAGAUGAAUAAAUGAAUGACUCAUCA [hsa-mir-545]	-0.383	-0.346	0.146	-0.414	-0.21
CCGCCCUCGUGUCUGUGGCGGUGG [hsa-mir-663a]	0.239	0.171	-0.231	0.334	0.679
CUGCUUUUAAAGGUAAUGGCAA [hsa-mir-548ag-1]	-0.0258	0.107	-0.0835	0.193	-0.0105
GUGUAGAGGCGGAGCACAG [hsa-mir-1471]	0.507	0.151	0.381	0.847	1.46
AGUAGCUGGGAAUACAGGUGUGUGCCACCAUGCCUCUACAAGCUACC [hsa-mir-7851]	-0.609	-0.469	-0.134	-0.0861	0.445
AGAAGAACU [hsa-mir-378j]	-0.205	-0.279	-0.0957	-0.272	-0.277
CUGGGUUCUUAGAGGCCUAAUCCUCUACAAACUCAGUUU [hsa-mir-4305]	-1.01	-0.124	-0.258	0.144	0.546

Sequence	pull-down binding Z-score [1]	pull-down binding Z-score [2]	pull-down binding Z-score [3]	pull-down binding Z-score (TO-N3 (biotin conjugate))	pull-down binding Z-score [4]
UUGUGUCCAUCAUGCAACAA [hsa-mir-802]	-1.17	-0.49	-0.248	-0.144	0.396
UUGAUGUCAGGUUAUCCCCAAGCAUAACCUCAC [hsa-mir-4639]	-1.21	-0.576	-0.186	-0.499	-0.0627
UGUCAUUACUUUUAACUGUA [hsa-mir-548h-5]	-0.935	1.2	0.219	1.07	-0.469
GAUUGGUCUGUGGUCCUCUC [hsa-mir-3615]	0.109	-0.569	-0.217	-0.565	0.498
CUAUCCUUCCCUUGGAAAAUGAUCUGAG [hsa-mir-4770]	-0.925	-0.188	-0.189	-0.245	-5.12e-05
GUCUCGGUCCUUUGGAACGUGGC [hsa-mir-4470]	-0.378	-0.39	-0.387	-0.607	-0.476
GUCAGUCCCAAUCUGAAUCCCACCAAAAUAGGUGGUAGAGGGUUGC [hsa-mir-4290]	-1.14	-0.204	0.249	0.0867	0.752
UCGAGAGGUCAGAGGAUUGCUCCUGA [hsa-mir-5585]	3.56	0.00526	-0.227	0.496	1.67
AGUUUCUGGAAUGUCAGAACUUCCAGAAACU [hsa-mir-3199-2]	-0.327	0.748	0.034	0.392	-0.865
CACAAUAUUUAGGACAACAAUAUU [hsa-mir-1302-6]	-0.807	-0.282	0.226	-0.362	-0.518
GAAGCUGUAAGACACAGCUAAGCUUU [hsa-mir-30d]	-0.32	-0.376	-0.00751	-0.169	0.0477
UUUGCCUAUAAAAGUAAUGGCAAA [hsa-mir-548an]	0.207	-0.247	-0.19	-0.512	-0.888
GGCCUGGGAUUCCUGCCUUCUAGGUC [hsa-mir-8078]	-0.278	0.742	-0.0252	0.707	0.307
GCUGCUGGUGCUCAUCUCAGC [hsa-mir-6877]	-0.152	0.71	-0.0239	0.825	0.602
AAAGAGGUGUUUCUACUCCAU [hsa-mir-3690-1_3690-2]	-1.18	-0.497	-0.0114	-0.517	-0.235
CCCAUAUGGAUUACUUUGCUAUGGA [hsa-mir-206]	-0.287	0.0156	-0.188	0.036	0.0791
CACUCUCCCUAAUGGGGCUGAAGACAGCUCAGGGGCAGGGUG [hsa-mir-4472-1]	1.88	-0.357	-0.583	-0.273	0.191
ACCCGGGUGGUGGAGGUUGCAGUGAGCCAAGAUUGCGCCACUGCACUCCAGCCUGGGC [hsa-mir-1273a]	-0.139	1.06	0.442	1.94	1.66
UGCGUUAGGAUUUCUGUAUCAUCCUCCUAACGCA [hsa-mir-3166]	0.901	0.576	0.141	0.306	-0.758

Sequence	pull-down binding Z-score [1]	pull-down binding Z-score [2]	pull-down binding Z-score [3]	pull-down binding Z-score (TO-N3 (biotin conjugate))	pull-down binding Z-score [4]
UUUAGAAAAGAGAAUUCCAAA [hsa-mir-1252]	-1.48	-0.294	-0.206	-0.315	-0.676
UUUUUGUUUUUGAGACAGAGU [hsa-mir-4472-2]	-0.943	0.455	0.0401	0.274	-0.803
UUCUUUGAGGAUCUGGCCUAAAGAG [hsa-mir-202]	-0.443	1.14	0.362	1.27	0.811
GCGGCUGUUAAUGAUUUUAACAGUUGC [hsa-mir-449c]	0.888	-0.84	-0.119	-1.14	-1.2
CUGAGUAACUUGUGCUUAUAACUCAG [hsa-mir-5000]	0.251	0.396	0.379	0.194	-0.396
AGGCUGGUCUCAAACUCCU [hsa-mir-5096]	-0.82	-0.118	-0.228	-0.0712	0.128
AAGAGGAGGUGGUUGUUUUCCUCCUCUU [hsa-mir-627]	-0.0833	0.432	0.625	0.944	1.15
UGUGUGUACUCACAGCCCCUCACACA [hsa-mir-942]	-0.624	-0.301	-0.262	-0.432	-0.11
GAGAACUCACGGUGCCUGUGGUUCGA [hsa-mir-3125]	-0.479	-0.41	-0.203	0.312	1.49
AGCCUCCAAACCUGUAGACAGGGUCAUGCAGUACUAGGGGCGAG [hsa-mir-4478]	-0.233	-0.0187	0.175	0.546	0.966
CGCUGCUGGCUGCCUUCCAGCG [hsa-mir-4533]	0.074	0.221	-0.568	0.079	0.26
GCGGUUUUUGCCAUUACUUUUCAUUUUUACCAUUAAAAGUAAUGGCAAAAAGCAU [hsa-mir-548q]	-0.112	-0.964	0.225	-1.09	-0.56
GUUUUACUAUGAUGAGGUGUGCCAUCCACCCCAUCAUAGUAAAC [hsa-mir-606]	-0.172	-0.262	-0.139	-0.422	-0.698
GGCUGCUGGAUUGAAUUAGCUGCA [hsa-mir-1286]	-0.74	0.023	0.133	0.506	1.15
UUCAGCCUAAAGCAAUGAGAAGCCUCUGAAAGGCUGA [hsa-mir-1827]	-0.0259	-0.198	-0.0588	0.212	0.76
UUUGUAUUGUGGUUCAGUACCAUGCAAA [hsa-mir-6507]	-0.552	-0.367	-0.36	-0.633	-0.933
CAGUGACAUGCGUUUAAC [hsa-mir-4485]	-0.778	0.345	0.112	0.394	0.0479
GAGGAUGCAGGAGAGGAAGGGGGCUUCUUUUUGACGCCUACUUCAUCAGCUGCUCCUC [hsa-mir-4330]	0.824	2.31	2.41	2.26	1.56
